Read-outs that look alike come from different tables or passages of the source.
T1: human EL (vascular endothelial lipase) (human, UniProt Q9Y5X9 21-500)
T1 sequence: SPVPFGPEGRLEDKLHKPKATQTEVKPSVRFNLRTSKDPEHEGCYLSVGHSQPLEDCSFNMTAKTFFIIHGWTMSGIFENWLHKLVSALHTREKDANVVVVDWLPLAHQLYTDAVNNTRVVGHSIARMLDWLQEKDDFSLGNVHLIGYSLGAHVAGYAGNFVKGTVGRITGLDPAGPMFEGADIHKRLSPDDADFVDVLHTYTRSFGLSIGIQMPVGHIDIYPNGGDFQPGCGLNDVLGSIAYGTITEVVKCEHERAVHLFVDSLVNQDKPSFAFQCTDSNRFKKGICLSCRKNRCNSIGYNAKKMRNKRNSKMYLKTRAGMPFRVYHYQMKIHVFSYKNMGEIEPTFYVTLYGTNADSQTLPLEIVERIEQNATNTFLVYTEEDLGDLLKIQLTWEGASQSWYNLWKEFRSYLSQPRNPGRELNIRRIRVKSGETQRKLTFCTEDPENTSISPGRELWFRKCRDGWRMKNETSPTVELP

T2: human [1-305]-mouse chimeric EL (human; mouse, UniProt Q9WVG5 306-500)
T2 sequence: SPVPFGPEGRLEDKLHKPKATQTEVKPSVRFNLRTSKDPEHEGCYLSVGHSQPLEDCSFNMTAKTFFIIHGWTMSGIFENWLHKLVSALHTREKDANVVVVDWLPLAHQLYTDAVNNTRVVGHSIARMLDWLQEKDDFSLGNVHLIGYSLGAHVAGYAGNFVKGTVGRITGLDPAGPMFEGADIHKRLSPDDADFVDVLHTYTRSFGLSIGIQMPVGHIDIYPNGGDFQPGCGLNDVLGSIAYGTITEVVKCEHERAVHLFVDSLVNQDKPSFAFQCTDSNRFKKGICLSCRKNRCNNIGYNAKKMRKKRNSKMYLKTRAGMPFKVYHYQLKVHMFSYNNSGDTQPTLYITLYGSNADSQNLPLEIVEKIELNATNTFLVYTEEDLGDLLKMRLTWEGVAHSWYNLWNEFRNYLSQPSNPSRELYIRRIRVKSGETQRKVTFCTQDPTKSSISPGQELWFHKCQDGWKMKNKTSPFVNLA

T3: human HL (hepatic lipase) (human, UniProt P11150 23-499)
T3 sequence (looked up): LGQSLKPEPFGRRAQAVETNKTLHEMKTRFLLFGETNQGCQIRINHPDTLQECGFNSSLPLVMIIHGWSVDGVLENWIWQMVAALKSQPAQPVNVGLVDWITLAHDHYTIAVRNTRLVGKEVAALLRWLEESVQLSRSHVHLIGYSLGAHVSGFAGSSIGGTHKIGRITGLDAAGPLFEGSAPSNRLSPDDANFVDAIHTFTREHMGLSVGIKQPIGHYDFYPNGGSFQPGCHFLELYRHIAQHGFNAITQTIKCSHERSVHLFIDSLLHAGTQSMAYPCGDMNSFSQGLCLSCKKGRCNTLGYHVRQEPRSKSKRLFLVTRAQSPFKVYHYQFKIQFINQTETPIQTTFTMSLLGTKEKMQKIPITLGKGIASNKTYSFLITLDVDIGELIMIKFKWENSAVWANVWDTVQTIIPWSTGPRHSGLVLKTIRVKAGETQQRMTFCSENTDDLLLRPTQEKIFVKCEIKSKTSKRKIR

T4: human LPL (lipoprotein lipase) (human, UniProt P06858 28-475)
T4 sequence (looked up): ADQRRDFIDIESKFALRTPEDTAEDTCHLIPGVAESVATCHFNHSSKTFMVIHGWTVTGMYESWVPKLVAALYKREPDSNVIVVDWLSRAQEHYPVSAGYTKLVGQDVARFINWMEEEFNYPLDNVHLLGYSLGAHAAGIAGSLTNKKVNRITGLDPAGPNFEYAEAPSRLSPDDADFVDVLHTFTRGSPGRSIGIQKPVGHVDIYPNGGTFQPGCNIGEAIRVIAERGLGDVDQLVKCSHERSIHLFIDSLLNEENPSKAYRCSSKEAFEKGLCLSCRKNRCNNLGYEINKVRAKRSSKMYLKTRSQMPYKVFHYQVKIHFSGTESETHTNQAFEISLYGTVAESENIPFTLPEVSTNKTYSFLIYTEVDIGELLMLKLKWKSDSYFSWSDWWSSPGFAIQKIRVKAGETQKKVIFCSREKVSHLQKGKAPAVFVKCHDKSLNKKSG

T5: mouse EL (mouse, UniProt Q9WVG5 21-500)
T5 construct: Heparin extract
T5 sequence (looked up): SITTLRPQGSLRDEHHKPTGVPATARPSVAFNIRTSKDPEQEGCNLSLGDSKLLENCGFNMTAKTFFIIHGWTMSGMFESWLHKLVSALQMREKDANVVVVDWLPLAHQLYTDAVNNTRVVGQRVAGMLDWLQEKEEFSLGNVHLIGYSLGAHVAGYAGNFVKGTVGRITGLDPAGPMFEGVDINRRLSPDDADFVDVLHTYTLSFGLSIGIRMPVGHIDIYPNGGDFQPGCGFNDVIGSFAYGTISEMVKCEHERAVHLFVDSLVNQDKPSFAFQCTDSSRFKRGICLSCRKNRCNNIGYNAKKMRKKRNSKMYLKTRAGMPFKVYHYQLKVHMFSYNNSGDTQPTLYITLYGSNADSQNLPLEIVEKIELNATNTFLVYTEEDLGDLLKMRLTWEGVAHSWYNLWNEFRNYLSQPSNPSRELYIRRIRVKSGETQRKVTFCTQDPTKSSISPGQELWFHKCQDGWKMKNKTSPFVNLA

T6: human [1-157]-mouse chimeric EL (human; mouse, UniProt Q9WVG5 158-500)
T6 construct: Heparin extract, detected by an anti-C2-tag antibody
T6 sequence: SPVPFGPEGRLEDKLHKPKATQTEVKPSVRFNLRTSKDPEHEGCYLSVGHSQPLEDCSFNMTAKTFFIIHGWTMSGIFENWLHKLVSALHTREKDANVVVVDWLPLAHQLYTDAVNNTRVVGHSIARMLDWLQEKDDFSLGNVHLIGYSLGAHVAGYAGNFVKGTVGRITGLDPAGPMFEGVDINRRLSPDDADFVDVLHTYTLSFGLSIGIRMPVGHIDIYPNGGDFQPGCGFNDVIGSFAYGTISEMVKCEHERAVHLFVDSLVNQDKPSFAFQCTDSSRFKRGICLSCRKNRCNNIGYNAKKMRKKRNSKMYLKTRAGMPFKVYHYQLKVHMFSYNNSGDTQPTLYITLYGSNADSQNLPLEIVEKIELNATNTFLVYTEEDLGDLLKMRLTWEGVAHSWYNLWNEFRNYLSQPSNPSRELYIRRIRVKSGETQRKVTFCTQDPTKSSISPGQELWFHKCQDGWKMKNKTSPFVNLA

B1: h23H8-S2 (antibody, V domains shown)
VH: QVQLVQSGAEVKKPGASVKVSCKASGYTFTDNTIHWVRQAPGQGLEWMGHINPYYGGTNNNEKFKDRVTMTRDTSISTAYMELSRLRSDDTAVYYCARKGIYYSSPFDYWGQGTTVTVSS
VL: DIQMTQSPSSLSASVGDRVTITCRASQDINNYLNWYQQKPGKAPKLLISYTSKLHSGVPSRFSGSGSGTDFTLTISSLQREDFATYYCQQGNTLPFTFGQGTKLEIK
B2: 19E7 (antibody, mouse IgG2a, V domains shown)
VH: QVQLQQPGSVLVRPGASVKLSCKASGYTFTTYWMHWVKQRPGQGLEWIGEIHPYSGNNNNNEKFKGKATLTVDTSSSTAYVDLSRLTSEDSAVYYCARYDSNYVFAYWGQGTLVTVSA
VL: QIVLTQSPAIMSASPGEGVTITCSASSSVSYMHWFQQKPGTSPKLWIYSTSNLASGVPARFSGSGSGTSYSLTISRMEAEDAATYYCQQRDSYLTFGSGTKLEVK
notes: mouse IgG2a from hybridoma; also called 19E1(19E7)
B3: h16B3-S2 (antibody, V domains shown)
VH: EVQLVESGGGLVQPGGSLRLSCAASGFTFSGYTMSWVRQAPGKGLEWVSEISFARDRAFYPDTVKGRFTISRDNSKNTLYLQMNSLRAEDTAVYYCARLGGRNHDYWYFDVWGQGTTVTVSS
VL: DIVMTQSPDSLAVSLGERATINCRASESVEYYGTSLMQWYQQKPGQPPKLLIYAASNVESGVPDRFSGSGSGTDFTLTISSLQAEDVAVYYCQQSWKVPFTFGQGTKLEIK
notes: humanized
B4: h13B3-S1 (antibody, V domains shown)
VH: QVQLVQSGAEVKKPGASVKVSCKASGYTFTEYTMHWVRQAPGQGLEWMGSINPYYGGTSYNEKFKDRVTMTRDTSTSTVYMELSSLRSEDTAVYYCARYGNYVGYFDYWGQGTTVTVSS
VL: EIVLTQSPGTLSLSPGERATLSCRASSSVHYMYWYQQKPGQAPRLLIYYTSNLAPGIPDRFSGSGSGTDFTLTISRLEPEDFAVYYCQQFTSSPYTFGGGTKVEIK
B5: h55A1-S1 (antibody, V domains shown)
VH: QVQLVQSGSELKKPGASVKVSCKASGYTFTNYGMNWVRQAPGQGLEWMGWINTYSGVPTYAGDFKGRFVFSLDTSVSTAYLQISSLKAEDTAVYYCARRGYYGRRYFDVWGKGTTVTVSS
VL: DIVLTQSPASLAVSPGQRATITCKASQSVDYDVDSYMHWYQQKPGQPPKLLIYAASNLASGVPARFSGSGSGTDFTLTINPVEANDTANYYCQQTIEDPPTFGGGTKVEIK
notes: humanized

How the values were obtained:
[1] = molecular target: T1, human EL (vascular endothelial lipase); assay: cell-based or functional assay
[2] = molecular target: T2, human [1-305]-mouse chimeric EL; assay: cell-based or functional assay
[3] = molecular target: T3, human HL (hepatic lipase); assay: cell-based or functional assay
[4] = molecular target: T4, human LPL (lipoprotein lipase); assay: cell-based or functional assay
[5] = molecular target: baboon EL (baboon); assay: cell-based or functional assay
[6] = molecular target: cynomolgus monkey EL (cynomolgus monkey); assay: cell-based or functional assay
[7] = molecular target: rabbit EL (rabbit); assay: cell-based or functional assay
[8] = molecular target: human-mouse chimeric EL (construct not specified); assay: cell-based or functional assay
[9] = molecular target: T7, cynomolgus monkey EL (cynomolgus monkey); assay: Biacore; EL captured by anti-C2-tag Ab; bivalent fit
T7 construct: Heparin extract; also called cynomolgus EL; Cynomolgus EL
Procedure: The binding affinities of anti-EL antibodies were measured using Biacore. […] Then, anti-EL antibodies were added and the binding affinities were calculated by bivalent fitting of BIAevaluation software.

[10] = molecular target: T7, cynomolgus monkey EL; assay: ELISA: antibody captured on anti-mouse IgG-Fc plate, EL heparin extract added, detection with biotin anti-C2-tag antibody and HRP-streptavidin, A450
Procedure: (§1) Assay buffer containing 15 μl of anti-EL antibody was added to anti-mouse IgG-Fc antibody-immobilized microtiter plate, and incubated for 2 hr. […] After washing the wells three times with 90 μL of washing buffer, 15 μl of assay buffer containing biotin-labeled anti-C2-tag antibody and HRP-labeled Streptavidin were added to the wells and incubated at room temperature for 1 hr. After washing the wells three times with 90 μL of washing buffer, 15 μL of TMB+—Substrate—Chromogen (DAKO) was added and incubated at room temperature for 30 min and then 15 μL of 0.05 M H2SO₄ was added and absorbance at 450 nm was measured (FIG. 3A to 3K).

[11] = molecular target: T5, mouse EL; assay: as above
Procedure: as §1

[12] = molecular target: T6, human [1-157]-mouse chimeric EL; assay: as above
Procedure: as §1

[13] = molecular target: T2, human [1-305]-mouse chimeric EL; assay: as above
Procedure: as §1

[14] = molecular target: T7, cynomolgus monkey EL; assay: cell-based or functional assay; remark: listed apart in the source
[15] = molecular target: T7, cynomolgus monkey EL; assay: Biacore; EL captured by anti-C2-tag Ab; bivalent fit; remark: listed apart in the source
Procedure: (§2) The binding affinities of anti-EL antibodies were measured using Biacore. […] Then, anti-EL humanized antibodies were added and the binding affinities were calculated by bivalent fitting of BIAevaluation software.

[16] = molecular target: T2, human [1-305]-mouse chimeric EL; assay: as above
Procedure: as §2

Row | Binder | Neutralizing activity IC50 [1] | Neutralizing activity IC50 [2] | Neutralizing activity IC50 [3] | Neutralizing activity IC50 [4] | Neutralizing activity IC50 [14] | Kd [15] | koff [15] | kon [15] | Kd [16] | koff [16] | kon [16] | other results
1 | B1 | 4.5 nM | 1.7 nM | > 400 nM | > 400 nM | – | – | – | – | – | – | – | –
2 | B2 | – | – | – | – | – | – | – | – | – | – | – | Neutralizing activity IC50 [5]: 2 nM; Neutralizing activity IC50 [6]: 1.7 nM; Neutralizing activity IC50 [7]: 5.7 nM; Neutralizing activity IC50 [8]: 2.4 nM; Kd [9]: 3.3 nM; koff [9]: 0.00018 s⁻¹; kon [9]: 55000 M⁻¹ s⁻¹; EC50 (read off the curve) [10]: ~30 ng/mL; binding result [11]: no binding (tested: about 330 ng/mL); binding result [12]: no binding (tested: about 330 ng/mL); EC50 (read off the curve) [13]: ~6 ng/mL
3 | B3 | 4.6 nM | 5.3 nM | > 400 nM | > 400 nM | 1.9 nM | 2 nM | 0.0001 s⁻¹ | 51000 M⁻¹ s⁻¹ | 9.3 nM | 0.00022 s⁻¹ | 24000 M⁻¹ s⁻¹ | –
4 | B4 | 2.3 nM | 3 nM | > 400 nM | > 400 nM | – | – | – | – | – | – | – | –
5 | B5 | 3.9 nM | 2.2 nM | > 1800 nM | > 1800 nM | 1.6 nM | 0.59 nM | 0.00026 s⁻¹ | 440000 M⁻¹ s⁻¹ | 31 nM | 0.00086 s⁻¹ | 27000 M⁻¹ s⁻¹ | –
